System: HCV pseudovirion entry
Assay: HCV pseudovirion entry into target cells
Type: cell-based
Settings: E1/E2-mediated entry of pseudovirions
From the text: The procedure of Bartosch et al. (2003b) was used to generate retroviral particles pseudotyped with HCV envelope glycoproteins (HCV pseudovirus particles; HCVpp). Briefly, in order to generate HCV pseudovirions, 293T cells were cotransfected with HIV-1-based (pLenti6, Invitrogen) or MMLV-based (pFB, Stratagene, La Jolla, Calif.) retroviral vectors and vectors expressing structural genes, including Gag, Pol and envelope glycoproteins (see FIG. 2). In addition, the HIV-1-based vector was cotransfected with a Rev-encoding plasmid to enable transport of genomic RNAs from the nucleus to the cytoplasm.
Antibodies against E2 as well as HCV+ sera inhibited E1/E2-mediated entry.

B1: soluble CD81 ECL2 peptide: soluble CD81 ECL2 peptide (peptide)
peptide: FVNKDQIAKDVKQFYDQALQQAVVDDDANNAKAVVKTFHETLDCCGSSTLTALTTSVLKNNLCPSGSNIISNLFKEDCHQKIDDLFSGK
inhibition of HCV pseudovirion entry: inhibited HCV pseudovirion entry
